In patent US10251952B2, “Humanized anti-tau(pS422) antibody brain shuttles and use thereof” (Hoffmann-La Roche Inc., priority 2014, dated 2019):
Positions count from the first letter of the chain named. Read-outs that look alike come from different tables or passages of the source. Each block holds one molecule with its values, some of them ahead of it. Ends that are not written are not given here.

Tests used:
[1] = molecular target: T1, NPY2R (Homo sapiens, UniProt P49146); experiment: effect on the Y2Receptor family
T1 sequence (P49146 1-381): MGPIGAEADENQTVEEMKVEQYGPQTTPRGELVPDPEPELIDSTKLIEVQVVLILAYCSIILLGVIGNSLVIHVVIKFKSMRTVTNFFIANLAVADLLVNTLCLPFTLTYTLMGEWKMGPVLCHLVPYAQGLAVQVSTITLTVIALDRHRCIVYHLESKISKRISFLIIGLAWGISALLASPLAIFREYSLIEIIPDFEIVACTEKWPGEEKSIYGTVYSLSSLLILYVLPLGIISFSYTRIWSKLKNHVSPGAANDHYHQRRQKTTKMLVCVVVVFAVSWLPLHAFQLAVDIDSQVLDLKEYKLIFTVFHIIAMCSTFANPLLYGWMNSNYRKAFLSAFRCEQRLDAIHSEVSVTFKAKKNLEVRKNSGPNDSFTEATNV

[2] = molecular target: NPY4R (Homo sapiens, UniProt P50391); experiment: effect on the Y2Receptor family
Sequence of NPY4R (P50391 whole entry, species assumed): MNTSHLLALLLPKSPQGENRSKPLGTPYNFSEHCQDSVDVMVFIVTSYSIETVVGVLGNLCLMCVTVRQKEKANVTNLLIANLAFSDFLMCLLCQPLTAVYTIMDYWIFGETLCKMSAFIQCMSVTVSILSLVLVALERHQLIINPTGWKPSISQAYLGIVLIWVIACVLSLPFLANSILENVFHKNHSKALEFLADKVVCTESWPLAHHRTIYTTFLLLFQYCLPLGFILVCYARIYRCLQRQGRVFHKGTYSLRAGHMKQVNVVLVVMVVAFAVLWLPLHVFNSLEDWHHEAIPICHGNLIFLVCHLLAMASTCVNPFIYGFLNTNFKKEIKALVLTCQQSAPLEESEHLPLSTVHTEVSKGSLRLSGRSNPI

[3] = molecular target: T2, NPY5R (Homo sapiens, UniProt Q15761); experiment: effect on the Y2Receptor family
T2 sequence (Q15761 1-445): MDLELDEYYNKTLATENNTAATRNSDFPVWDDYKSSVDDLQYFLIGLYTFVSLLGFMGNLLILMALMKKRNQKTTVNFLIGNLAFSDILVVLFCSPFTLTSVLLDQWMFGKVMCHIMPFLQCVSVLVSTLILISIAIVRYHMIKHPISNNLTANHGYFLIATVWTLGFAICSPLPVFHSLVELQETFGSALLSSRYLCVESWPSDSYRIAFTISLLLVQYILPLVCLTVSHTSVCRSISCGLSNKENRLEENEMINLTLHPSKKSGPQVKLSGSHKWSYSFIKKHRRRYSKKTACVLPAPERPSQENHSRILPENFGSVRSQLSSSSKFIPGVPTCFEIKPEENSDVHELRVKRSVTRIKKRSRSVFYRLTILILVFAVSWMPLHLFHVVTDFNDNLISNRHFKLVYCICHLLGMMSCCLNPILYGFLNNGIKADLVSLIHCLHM

[4] = molecular target: anti-HeliCar motif amino acid sequence antibody; experiment: binding of PYY peptides to anti-HeliCar motif antibody
[5] = molecular target: T3, S422A tau mutant S422A SEQ ID NO: 01 (Homo sapiens, UniProt P10636, S739A); experiment: ELISA binding specificity of VH/VL combinations
T3 construct: (A)=full length human tau S422A mutant
T3 sequence (P10636 1-441 isoform P10636-8 S422A): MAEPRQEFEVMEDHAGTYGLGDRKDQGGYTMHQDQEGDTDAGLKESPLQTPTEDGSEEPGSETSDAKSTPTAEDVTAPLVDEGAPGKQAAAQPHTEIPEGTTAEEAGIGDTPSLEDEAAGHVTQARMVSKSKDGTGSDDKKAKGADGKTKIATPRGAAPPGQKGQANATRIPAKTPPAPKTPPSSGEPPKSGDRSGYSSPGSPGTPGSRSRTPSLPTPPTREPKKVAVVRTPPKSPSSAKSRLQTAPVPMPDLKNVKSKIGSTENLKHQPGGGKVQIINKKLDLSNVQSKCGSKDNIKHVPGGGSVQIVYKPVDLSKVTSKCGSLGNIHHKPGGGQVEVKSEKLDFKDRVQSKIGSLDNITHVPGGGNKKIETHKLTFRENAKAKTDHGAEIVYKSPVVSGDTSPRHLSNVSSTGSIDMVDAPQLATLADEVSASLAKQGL
Protocol: (§1) In the following Table the binding specificity for different VH/VL combinations are shown (EC50 values in [ng/ml]).
(§2) Non-biotinylated peptide/protein/aggregate was added to non-coated Maxisorb plates, biotinylated peptide/protein/aggregate in PBS was added to streptavidin-coated Maxisorb plates, and plates were incubated over-night. The supernatant was discarded and the wells washed three times with 90 μl wash buffer (lx PBS/0.1% Tween 20). Remaining reactive spots were blocked with blocking buffer (lx PBS/2% BSA (Bovine Serum Albumin Fraction V, fatty acid free, Roche, Cat. No.: 10735078001)/0.05% Tween 20) by incubating for one hour. The supernatant was discarded and the wells washed three times with 90 μl wash buffer. Samples and control antibody were prepared in 12 dilutions (1:2) in ELISA buffer (lx PBS/0.5% BSA (Bovine Serum Albumin Fraction V, fatty acid free, Roche, Cat. No.: 10735078001)/0.05% Tween 20) with a start concentration of 500 ng/ml. The incubation time was 60 minutes at room temperature on a shaker. The supernatant was discarded and the wells washed three times with 90 μl wash buffer. Solutions of secondary antibody were prepared in ELISA buffer. A total of 25 μl antibody-mix was transferred to all wells of the assay plate and the plate was thereafter incubated on shaker for 60 minutes at room temperature. The supernatant was discarded and the wells were washed three times with 90 μl wash buffer. 25 μl of ABTS solution was added to all wells. The absorbance was read at 405 nm-492 nm.

[6] = molecular target: tau(pS422) aggregates (Homo sapiens, UniProt P10636, S739X); experiment: ELISA binding specificity of VH/VL combinations
Protocol: as §1, §2

[7] = molecular target: tau(pS422) fragment SEQ ID NO: 03 (Homo sapiens, UniProt P10636, S739X); experiment: ELISA binding specificity of VH/VL combinations
Protocol: as §1, §2

[8] = molecular target: full length tau(pS422) SEQ ID NO: 02 (Homo sapiens, UniProt P10636, S739X); experiment: ELISA binding specificity of VH/VL combinations
Protocol: as §1, §2

[9] = molecular target: T4, tau peptide residues 416 to 430 of SEQ ID NO: 01 (Homo sapiens, UniProt P10636); experiment: ELISA binding specificity of VH/VL combinations
T4 construct: 416 to 430
Protocol: as §1, §2

[10] = molecular target: human tau phosphorylated at S422 (Homo sapiens, UniProt P10636, S739X); experiment: Western Blot selectivity of humanized VH/VL combinations; type: binding; conditions: for WB: summary grading 1 to 4, key not given
Excerpt: FIG. 5 is a Western Blot showing the selectivity of selected humanized VH/VL combinations; (1)=VH00/VL00, (2)=VH32/VL21, (3)=VH20/VL22, (4)=VH32/VL22, (5)=VH33/VL22.
The sensitivity of selected humanized VH/VL combinations to the human tau mutant S422A can be seen from the Western Blots shown in FIG. 5. All humanized variants selectively bind to human tau phosphorylated at S422.

[11] = molecular target: T5, human tau(pS422) (Homo sapiens, UniProt P10636, S739X); experiment: BIAcore kinetic screening and kinetic rates of humanized VH/VL combinations; type: binding; conditions: for MR: molar ratio; for BIAcore: summary grading 1 to 4, key not given
Protocol: In the following Table characteristics of the different humanized variants of the rabbit light chain variable domain in combination with the humanized heavy chain variable domains VH14 and VH20, respectively, are shown. Binding partner was human tau(pS422).
Kinetic screening was performed according to Schraeml et al. (Schraeml, M. and M. Biehl, Methods Mol. Biol. 901 (2012) 171-181) on a BIAcore 4000 instrument, mounted with a BIAcore CM5 sensor. The BIAcore 4000 instrument was under the control of the software version V1.1. A BIAcore CM5 series S chip was mounted into the instrument and was hydrodynamically addressed and preconditioned according to the manufacturer's instructions. The instrument buffer was HBS-EP buffer (10 mM HEPES (pH 7.4), 150 mM NaCl, 1 mM EDTA, 0.05% (w/v) P20). An antibody capture system was prepared on the sensor surface. A polyclonal goat anti-human antibody with human IgG-Fc specificity (Jackson Lab.) was immobilized at 30 μg/ml in 10 mM sodium acetate buffer (pH 5) to spots 1, 2, 4 and 5 in the instrument's flow cells 1, 2, 3 and 4 at 10,000 RU using NHS/EDC chemistry. In each flow cell the antibodies were captured on spot 1 and spot 5. Spot 2 and spot 4 were used as reference spots. The sensor was deactivated with a 1 M ethanolamine solution. Humanized antibody derivatives were applied at concentrations between 44 nM and 70 nM in instrument buffer supplemented with 1 mg/ml CMD (carboxymethyldextrane). The antibodies were injected at a flow rate of 30 μl/min for 2 minutes. The capture level (CL) of the surface-presented antibodies was measured in rel. response units (RU). The analytes in solution, phosphorylated human tau protein, non-phosphorylated human tau protein and the phosphorylated human tau mutant protein T422S were injected at 300 nM for 3 minutes at a flow rate of 30 μl/minute. The dissociation was monitored for 5 minutes. The capture system was regenerated by a 1 minute injection of 10 mM glycine buffer, pH 1.7 at 30 μL/minute over all flow cells. Two report points, the recorded signal shortly before the end of the analyte injection, denoted as binding late (BL) and the recorded signal shortly before the end of the dissociation time, stability late (SL), were used to characterize the kinetic screening performance. Furthermore, the dissociation rate constant kd (1/s) was calculated according to a Langmuir model and the antibody/antigen complex half-life was calculated in minutes according to the formula ln(2)/(60*kd). The molar ratio (MR) was calculated according to the formula MR=(Binding Late (RU))/(Capture level (RU))*(MW(antibody)/(MW(antigen)). In case the sensor was configured with a suitable amount of antibody ligand capture level, each antibody should be able to functionally bind at least to one analyte in solution, which is represented by a molar ratio of MR=1.0. Then, the molar ratio is also an indicator for the valence mode of analyte binding. The maximum valence can be MR=2 for an antibody binding two analytes, one with each Fab valence.
In another embodiment, kinetic rates were determined at 25° C. and 37° C. using the same experimental setup, but using multiple concentration series of each analyte in solution at 0 nM (buffer), 1.2 nM, 3.7 nM, 11.1 nM, 33.3 nM, 100 nM and 300 nM. From the concentration-dependent binding behavior the kinetic data was calculated using the BIAcore evaluation software according to the manufacturer's instructions and a Langmuir 1.1 model with RMAX global.

[12] = molecular target: T5, human tau(pS422); experiment: IHC grading in summary of biological properties; conditions: key not given
Excerpt: The following table summarizes the biological properties of selected humanized VH/VL combinations.

[13] = 25 °C, VL17 or VL19 with VH variants

Molecule: IKPEAPGEDASPEAHLANEVARLHYLNLVTRQRY-NH2 [PYY_HeliCar]
NPY2R [1]: 6.38 nM
NPY4R [2]: inactive
NPY5R [3]: inactive
Kd [4]: 12 nM

B1: VH00/VL00: rabbit antibody reference (parent of humanized variants, from mAb 086); VH SEQ ID NO: 11, VL SEQ ID NO: 07 (antibody, listed as Oryctolagus cuniculus, V domains shown)
VH: QSVEESGGRLVTPGTPLTLTCTVSGFSLSSNAINWVRQAPGKGLEWIGYIAVSGNTYYASWAKGRFTISKASTTVDLKMTSPTAEDTGTYFCGKSNIWGPGTLVTVSL
VL: AQVLTQTTSPVSAAVGSTVTISCQSSQSVRTNKLAWFQQKPGQPPKRLIYSASTLDFGVPSRFSASGSGTQFTLTISDVQCDDAATYYCLGYFDCSIADCVAFGGGTEVVVK
EC50 S422A tau mutant S422A SEQ ID NO: 01 [5]: 0.0479 µg/mL
EC50 tau(pS422) aggregates [6]: 18.1 ng/ml
EC50 tau(pS422) fragment SEQ ID NO: 03 [7]: 6.3 ng/ml
EC50 full length tau(pS422) SEQ ID NO: 02 [8]: 5.2 ng/ml
EC50 tau peptide residues 416 to 430 of SEQ ID NO: 01 [9]: >1 µg/mL
selectivity and cross-reactivity in Western Blot ([10]; FIG. 5): low level x-reactivity to non-S422 phosphoepitopes
t/2diss 25° C. ([11]; 25 °C): 54 min
Kd ([11]; 25 °C, read-out: KD 25° C.): 8 nM
t/2diss 37° C. ([11]; 37 °C): 24 min
Kd ([11]; 37 °C, read-out: KD 37° C.): 12 nM
MR ([11]; 25 °C): 0.6
MR ([11]; 37 °C): 0.8

B2: VH32/VL21: humanized anti-human tau(pS422) antibody; VH SEQ ID NO: 19, VL SEQ ID NO: 16 (antibody, V domains shown)
VH: EVQVLESGGGLVQPGGSLRLSCAVSGFSLSSNAINWVRQAPGKGLEWVGYIAVSGNTYYASWAKGRFTISRDNSKNTVYLQMNSLRAEDTAVYYCGKSNIWGQGTLVTVSS
VL: AQVMTQSPSSLSASVGDRVTITCRSSQSVRTNKLAWFQQKPGQPPKRLIYSASTLDFGVPSRFSGSGSGTEFTLTISSLQPEDFATYYCLGYFDSSADIVAFGGGTKVEIK
modifications: humanized sequence
EC50 S422A tau mutant S422A SEQ ID NO: 01 [5]: 0.0215 µg/mL
EC50 tau(pS422) aggregates [6]: 9.4 ng/ml
EC50 tau(pS422) fragment SEQ ID NO: 03 [7]: 4.4 ng/ml
EC50 full length tau(pS422) SEQ ID NO: 02 [8]: 2.9 ng/ml
EC50 tau peptide residues 416 to 430 of SEQ ID NO: 01 [9]: 0.634 µg/mL
IHC [12]: 3
WB [10]: 2
t/2diss 25° C. ([11]; 25 °C): 26 min
Kd ([11]; 25 °C, read-out: KD 25° C.): 18 nM
t/2diss 37° C. ([11]; 37 °C): 9 min
Kd ([11]; 37 °C, read-out: KD 37° C.): 32 nM
MR ([11]; 25 °C): 0.5
MR ([11]; 37 °C): 0.6
BIAcore [11]: 2

Second part, the molecule after the results:

EC50 S422A tau mutant S422A SEQ ID NO: 01 [5]: 0.0174 µg/mL
EC50 tau(pS422) aggregates [6]: 8.3 ng/ml
EC50 tau(pS422) fragment SEQ ID NO: 03 [7]: 5.6 ng/ml
EC50 full length tau(pS422) SEQ ID NO: 02 [8]: 3.5 ng/ml
EC50 tau peptide residues 416 to 430 of SEQ ID NO: 01 [9]: 0.048 µg/mL
IHC [12]: 1
WB [10]: 1
t/2diss 25° C. ([11]; 25 °C): 29 min
Kd ([11]; 25 °C, read-out: KD 25° C.): 14 nM
t/2diss 37° C. ([11]; 37 °C): 8 min
Kd ([11]; 37 °C, read-out: KD 37° C.): 31 nM
MR ([11]; 25 °C): 0.5
MR ([11]; 37 °C): 0.6
BIAcore [11]: 1
B3: VH32/VL22: humanized anti-human tau(pS422) antibody; VH SEQ ID NO: 19, VL SEQ ID NO: 17 (antibody, V domains shown)
VH: B2 VH
VL: B2 VL with K33R, F57Y
modifications: humanized sequence

kd [11, 13]: 0.00326 s⁻¹
t/2 diss [11, 13]: 4 min
B4: VL17 with VH15: anti-human tau(pS422) antibody; VH SEQ ID NO: 51, VL SEQ ID NO: 37 (antibody, V domains shown)
VH: QSVVESGGGLVQPGGSLRLSCAASGFSLSSNAINWVRQAPGKGLEWVGYIAVSGNTYYASWAKGRFTISRDNSKNTLYLQMNSLRAEDTAVYYCGKSNIWGPGTLVTVSS
VL: DIQMTQSPSSLSASVGDRVTITCRSSQSVRTNKLAWFQQKPGQPPKRLIYSASTLDFGVPSRFSGSGSGTEFTLTISSLQPEDFATYYCLGYFDCSIADCVAFGGGTKVEIK
modifications: humanized sequence
